Laboratory results as given in the RNAGym collection of RNA variant scans (doi:10.7554/elife.90254).

B1: LINE1-full (parent)
chain: UACGUAGGUGGUUUUCCCCUGAUAGUGCUAAGGGGGCCUGGAAGUUUGGACUGGGCAGAGCUCAACACAGCGUGGCAAAGUGGCUGUGGCUAGACUGCCUCUCUGGAUUCCUCGUCACUCAGCAGGGCAUCUCUGAGAGAAAUGCC

Variants of: B1
Assay: self-cleavage, relative activity (ratio to wild type); higher = more cleavage; in vitro, sequencing; the parent is a self-cleaving ribozyme
Work on UACGUAGGUGGUUUUCCCCUGAUAGUGCAAAGGGGGCCUGGAAGUUUGGACUGGGCAGAGCCCAACACAGCGUGGCAAAGUGGCUGUGGCUAGACUGCCUCUCUGGAUUCCUCGUCACUCAGCAGGGCAUCUCUGAGAGAAAUGCC [U29A U62C] yielded a self-cleavage of 0.
Variant UACGUAGGAGGUUUUCCCCUGAUAGUGCUAAGGGGUCCUGGAAGUUUGGACUGGGCAGAGCUCAACACAGCGUGGCAAAGUGGCUGUGGCUAGACUGCCUCUCUGGAUUCCUCGUCACUCAGCAGGGCAUCUCUGAGAGAAAUGCC [U9A G36U] has a self-cleavage of 0.71.
UACGUAGGUGGGUUUCCCCUGAUAGUGCUAAGGGGGCCUGGAAGUUUGGACUGGACAGAGCUCAACACAGCGUGGCAAAGUGGCUGUGGCUAGACUGCCUCUCUGGAUUCCUCGUCACUCAGCAGGGCAUCUCUGAGAGAAAUGCC [U12G G55A] showed a self-cleavage of 0.15.
Work on UACGUAGGUGGUUUUCCCCUGAUAGUGCUAAGGGGGCCUGGAAGUUUGGACUGGGCAGAGCUCAACACAGCGUGGCAAAGUGGCUUUGGCUAGACGGCCUCUCUGGAUUCCUCGUCACUCAGCAGGGCAUCUCUGAGAGAAAUGCC [G86U U96G] yielded a self-cleavage of 0.13.
Work on UACGUAGGUGGUUUUCCCCUGAUAGUGCUAAGGGGGCUUGGAAGUUUGGACUGGGCAGAGCUCAACACAGCGUGGCAAAGUGGCUGUGGCUAGACUGCCUUUCUGGAUUCCUCGUCACUCAGCAGGGCAUCUCUGAGAGAAAUGCC [C38U C101U] yielded a self-cleavage of 1.82.
In the case of UACGUAGGUGGUUUUCCCCUGAUAGUGCUAAGGGGGCCUGGAAGUUUGGACUGGGCAGAGCUCAACACAGCGUGGCAAAGUGGCUGUGGCUAGACUGCCUCUCUGGAUUCCUCGACACUCAGCAGGGCAUCCCUGAGAGAAAUGCC [U115A U132C], the self-cleavage is reported as 1.88.
With UACGUAGGUGGUUUUCCCCUAAUAGUGCUAAGGGGGCCUGGAAGUUUGGACUGGGCAGAGCUCAACACAGCGUGGCAAAGUGGCUGUGGCUAGACUGCCUCUCUGGAUUCCUCGUCACCCAGCAGGGCAUCUCUGAGAGAAAUGCC [G21A U119C] the self-cleavage was 1.25.
Variant UACGUAGGUGGUUUUCCCCUGAUAGUGCUAAGGGGGCCUGGAAGUUUGGACUGGGCAGAGCUCAACACAGCGUGGCAAAGUGGCUGUGGCUAGACUGCCUCUCUGGAUUCCUCGUGACUCAGCAGGGCAUCUCCGAGAGAAAUGCC [C116G U134C] has a self-cleavage of 0.99.
UACGUAGGUGGUUUUCCCCUAAUAGUGCUAAGGGGGCCUGGAAGUUUGGACUGGGCAGAGCUCAACACAGCGUGGCAAAGUGGCUGUGGCUAGACUGCCUCUCUGGAUUCCUCGGCACUCAGCAGGGCAUCUCUGAGAGAAAUGCC [G21A U115G] gave a self-cleavage of 0.96.
UACGUAGGUGGUUUUCCCCUGAUAGUGCUAAGGGGGCCAGGAAGUUUGGACUGGGCAGAGCUCAACACAGCGUGGCAAAGUGGCUGAGGCUAGACUGCCUCUCUGGAUUCCUCGUCACUCAGCAGGGCAUCUCUGAGAGAAAUGCC [U39A U87A] gave a self-cleavage of 0.07.
Variant UACGUAGGUGGUUUUCCCCUGAUAGUGCUAAGGGGGCCUGGAAGUUUGGACUGGGCAGAGCUCAACACAGCGUGGCAAAGUGGCUGUGGCUAGACUGCCUCUCUGGAUUCCUCGUCACUCUGCAGGGCAUUUCUGAGAGAAAUGCC [A121U C131U] has a self-cleavage of 0.58.
In the case of UACGUAGGUGGUUUUCCCCUGAUAGUGCUAAGGGGGCCUGGAAGUUUGGACUGGGCAGAGCUCAACACAGCGUGGAAAAGGGGCUGUGGCUAGACUGCCUCUCUGGAUUCCUCGUCACUCAGCAGGGCAUCUCUGAGAGAAAUGCC [C76A U81G], the self-cleavage is reported as 0.33.
UACGUAGGUGGUUUUCCCCUGAUAGUGCUAAAGGGGCCCGGAAGUUUGGACUGGGCAGAGCUCAACACAGCGUGGCAAAGUGGCUGUGGCUAGACUGCCUCUCUGGAUUCCUCGUCACUCAGCAGGGCAUCUCUGAGAGAAAUGCC [G32A U39C] showed a self-cleavage of 1.07.
UACGUAGGUUGUUUUCCCCUGAUAGUGCUAAGGGGGCCUGGAAGUUUGGACUGGGCAGAGCUCAACACAGCGUGGCAAAGUGGCUGUGGCUAGACUGCCUCUCCGGAUUCCUCGUCACUCAGCAGGGCAUCUCUGAGAGAAAUGCC [G10U U104C] showed a self-cleavage of 2.42.
With UACGAAGGUGGUUUUCCCCUGAUAGUGCUAAGGGGGCCUGGAAGUUUGGACUGGGCAGAGCUCAACACAGCGUGGCAAAGUGGCGGUGGCUAGACUGCCUCUCUGGAUUCCUCGUCACUCAGCAGGGCAUCUCUGAGAGAAAUGCC [U5A U85G] the self-cleavage was 0.16.
UACGUAGGUGGUUUUCCCCUGAUAGUGCUAAGGGGGCCUGGAAGUUUGGACUGGGCAGAGCUCAACACAGCGUGGCAAAGUGGCUGUGGCUAGACUGCCUCUCUGGAUUCCUCGUCACUCAGCAGGGCGUCUCUGAGAGAGAUGCC [A129G A141G] showed a self-cleavage of 1.6.
In the case of UACGUAGGUGGUUUUCCCCUGAUAGUGCUAAGGGGGCCUGGAAGUUUGGACUGGGCAGAGCUCAACACAGCGUGGCAAAGGGGCUGUGGCUAGACUGCCCCUCUGGAUUCCUCGUCACUCAGCAGGGCAUCUCUGAGAGAAAUGCC [U81G U100C], the self-cleavage is reported as 1.43.
With UACGUAGGUGGUUUUCCCCUGAUAGAGCUACGGGGGCCUGGAAGUUUGGACUGGGCAGAGCUCAACACAGCGUGGCAAAGUGGCUGUGGCUAGACUGCCUCUCUGGAUUCCUCGUCACUCAGCAGGGCAUCUCUGAGAGAAAUGCC [U26A A31C] the self-cleavage was 1.04.
For UACGUAGGUGGUUUUCCCCUGAUAGUGCUAAGGGGGCCUGGAAGUUUGGACUGGGCAGAGCUCCACACAGCGUGGCAAGGUGGCUGUGGCUAGACUGCCUCUCUGGAUUCCUCGUCACUCAGCAGGGCAUCUCUGAGAGAAAUGCC [A64C A79G], the self-cleavage was 0.28.
Variant UACGUAGGUGGUUUUCCCCUGAUAGUGCUAAGGGGGCCUGGAAGUUUGGACUGGGCAGAGCUCAACACAGCGUGGCAAAGUGGCUGUGGCUAGACUGCCUCUCUGGAUUCCUCGUCACUCAGCGGGGCAUCUCUGAGAGAACUGCC [A124G A142C] has a self-cleavage of 0.58.
